Here are results for one molecule from US20050048572A1 (Genentech, published 2005).

A word on the koff: it is the rate constant with which the complex falls apart. Read a low koff as a long-lived complex. The kon is the second-order rate constant of association. High values mean faster complex formation, low ones slower complex formation.

Experiment [1] has as its target T1, Human VEGF 165 (human, UniProt P15692 27-191).
T1 construct: mature; The 165-residue isoform without signal peptide; made in E. coli as in Simmons & Yansura 1996
The experiment can be described thus: SPR (BIAcore-3000), apparent Kd from koff/kon, VEGF165 immobilised, 37 C.
Method: (§1) A CM-5 biosensor chip (Biacore, Inc.) was activated according to the manufacturer's instructions for amine coupling. […] Unreacted groups were blocked with 1 M ethanolamine. […] The kinetics of IgG variants binding to immobilized VEGF were measured with 2-fold serial dilutions beginning with 500 nM IgG in running buffer (PBS, 0.05% Tween, 0.01% sodium azide) at a flow rate of 20 μl/min (see FIG. 12). Binding measurements were carried out at 37° C. Regeneration of the chip after each cycle was with 20 mM HCl, followed by washing, an injection of 100 mM Tris pH 8.0, and additional washing.
(§2) The kinetic curves were fit to a 1:1 Langmuir binding model using BIAcore evaluation software version 3, which calculated association (kₒₙ) and dissociation (koff) rates. An apparent equilibrium constant, Kd, was calculated from koff/kₒₙ for each variant (Table 7).

In experiment [2] the target is T1, Human VEGF 165. The experiment can be described thus: SPR (BIAcore-3000), VEGF165 immobilised on CM-5 chip, IgG in solution, 37 C, 1:1 Langmuir fit. In general terms: Surface plasmon resonance follows binding to a sensor surface in real time, without labels.
Method: as §1, §2

T1 sequence (P15692 other isoform, or with tags, fused parts or gaps): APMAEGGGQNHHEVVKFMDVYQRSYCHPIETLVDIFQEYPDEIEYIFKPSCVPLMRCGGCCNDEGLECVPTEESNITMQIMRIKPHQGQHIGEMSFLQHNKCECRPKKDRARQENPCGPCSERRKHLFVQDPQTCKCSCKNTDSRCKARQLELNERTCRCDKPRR

B1: anti-VEGF antibody VNERK, full-length, wild type hinge, produced in E. coli (antibody, V domains shown)
VH: EVQLVESGGGLVQPGGSLRLSCAASGYTFTNYGINWVRQAPGKGLEWVGWINTYTGEPTYAADFKRRFTFSLDTSKSTAYLQMNSLRAEDTAVYYCAKYPHYYVNERKSHWYFDVWGQGTLVTVSS
VL: DIQLTQSPSSLSASVGDRVTITCSASQDISNYLNWYQQKPGKAPKVLIYFTSSLHSGVPSRFSGSGSGTDFTLTISSLQPEDFATYYCQQYSTVPWTFGQGTKVEIKR
notes: Full-length aglycosylated human IgG1 made in E. coli; also called VNERK wild type; VNERK hinge wild type
Consider B1, for which the Kd with Human VEGF 165 [1] turned out to be 0.25 nM. In the experiment with Human VEGF 165 [2], this molecule had a koff of 5.9e-06 s⁻¹ and a kon of 23000 M⁻¹ s⁻¹.
